Where a SMILES comes first, the peptide text is derived from it. Where no end group is shown, it is not given here. [ ]: non-standard residue; d: D form. The star is where a group is joined. Biotin = O=C1N[C@H]2[C@H](CS[C@H]2CCCCC(=O)*)N1; pY = N[C@@H](Cc1ccc(OP(=O)(O)O)cc1)C(=O)O
T1: GST-SHP-1.SH2(N + C) (Mus musculus, UniProt P29351)
T1 construct: Using recombinant soluble tandem SH2 domains of SHP-1 and SHP-2; made in house; host or cells: E. coli DH5α
T1 sequence (P29351 1-213 limits assumed): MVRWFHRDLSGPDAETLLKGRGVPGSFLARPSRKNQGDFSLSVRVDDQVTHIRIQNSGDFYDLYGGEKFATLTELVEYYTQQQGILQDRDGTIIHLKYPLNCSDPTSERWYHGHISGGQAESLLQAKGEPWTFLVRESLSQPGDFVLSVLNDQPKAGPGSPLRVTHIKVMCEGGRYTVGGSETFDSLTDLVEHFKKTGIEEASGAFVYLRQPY

T2: GST-SHP-2.SH2(N + C) (Mus musculus, UniProt P35235)
T2 construct: Using recombinant soluble tandem SH2 domains of SHP-1 and SHP-2; made in house; host or cells: E. coli DH5α
T2 sequence (P35235 1-216 limits assumed): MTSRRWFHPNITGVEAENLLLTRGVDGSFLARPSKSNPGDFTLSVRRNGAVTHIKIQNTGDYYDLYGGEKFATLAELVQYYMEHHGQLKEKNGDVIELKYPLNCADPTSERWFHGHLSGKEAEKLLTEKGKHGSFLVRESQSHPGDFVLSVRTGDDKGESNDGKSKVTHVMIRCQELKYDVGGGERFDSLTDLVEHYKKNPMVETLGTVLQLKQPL

T3: SHIP polyinositol phosphatase from RBL-2H3 cell lysates (rat (cell line RBL-2H3), UniProt P97573 1-1190, limits assumed)
T3 construct: Detected by immunoblot with anti-SHIP antiserum
T3 sequence (looked up): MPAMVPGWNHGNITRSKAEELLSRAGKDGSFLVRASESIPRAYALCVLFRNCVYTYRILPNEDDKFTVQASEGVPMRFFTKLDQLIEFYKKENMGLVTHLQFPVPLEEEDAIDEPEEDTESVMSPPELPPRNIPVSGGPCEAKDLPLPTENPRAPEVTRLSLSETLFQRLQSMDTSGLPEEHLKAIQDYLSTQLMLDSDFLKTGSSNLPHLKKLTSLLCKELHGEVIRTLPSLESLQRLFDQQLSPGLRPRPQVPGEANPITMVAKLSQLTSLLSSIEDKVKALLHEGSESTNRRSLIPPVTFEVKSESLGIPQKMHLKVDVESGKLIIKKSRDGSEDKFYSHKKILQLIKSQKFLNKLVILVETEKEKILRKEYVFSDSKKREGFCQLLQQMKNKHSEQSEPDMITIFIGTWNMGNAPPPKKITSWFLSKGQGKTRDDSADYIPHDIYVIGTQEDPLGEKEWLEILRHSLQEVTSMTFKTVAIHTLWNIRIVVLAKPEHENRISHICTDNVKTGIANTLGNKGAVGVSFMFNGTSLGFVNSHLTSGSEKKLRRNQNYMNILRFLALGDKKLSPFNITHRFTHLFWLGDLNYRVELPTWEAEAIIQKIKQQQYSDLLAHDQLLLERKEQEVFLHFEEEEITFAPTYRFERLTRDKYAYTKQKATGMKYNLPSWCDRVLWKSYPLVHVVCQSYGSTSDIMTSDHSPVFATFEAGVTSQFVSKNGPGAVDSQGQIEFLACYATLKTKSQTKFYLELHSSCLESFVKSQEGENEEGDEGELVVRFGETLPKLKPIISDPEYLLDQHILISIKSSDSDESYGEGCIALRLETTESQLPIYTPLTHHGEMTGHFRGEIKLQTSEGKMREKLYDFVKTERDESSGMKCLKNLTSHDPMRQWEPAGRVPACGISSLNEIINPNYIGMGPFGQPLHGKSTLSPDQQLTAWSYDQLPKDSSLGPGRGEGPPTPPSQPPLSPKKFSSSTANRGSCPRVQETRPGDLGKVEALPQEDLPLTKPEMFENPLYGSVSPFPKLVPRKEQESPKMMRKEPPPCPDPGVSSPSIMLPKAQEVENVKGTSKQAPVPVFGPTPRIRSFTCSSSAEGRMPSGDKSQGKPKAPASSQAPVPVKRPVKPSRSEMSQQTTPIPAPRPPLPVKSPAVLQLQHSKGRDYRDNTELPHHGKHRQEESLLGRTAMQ


Legend:
[1] = molecular target: phosphorylated p58.2.1 peptide (N-terminal KIR ITIM) (human); test: SPR (BIAcore), phosphopeptide on streptavidin chip, GST fusion injected
[2] = molecular target: phosphorylated p58.2.2 peptide (C-terminal KIR ITIM) (human); test: as above
phosphorylated p58.2.2 peptide (C-terminal KIR ITIM) (human), sequence (peptide, as listed by the source): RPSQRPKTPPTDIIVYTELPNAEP

GST-SHP-1.SH2(N + C) = molecular target: T1, GST-SHP-1.SH2(N + C); test: Surface plasmon resonance (BIAcore), SHP-1 tandem SH2 domains; format: binding, murine; details: for koff / kon: 25 RU phosphorylated peptide immobilized, 5 μl/min
Procedure: (§1) Surface plasmon resonance measurements were performed on a BIAcore apparatus (BIAcore). The GST-SHP1.SH2(NC), GST-SHP2.SH2(NC) and GST-SHIP.SH2 fusion proteins generated from the murine phosphatase cDNAs, were purified from DH5α lysates as previously described. Before their use in BIAcore experiments, fusion proteins were dialyzed in HBS buffer pH 7.4 (10 mM HEPES, 150 mM NaCl, 3.4 mM EDTA). Protein purity was assessed by 12.5% SDS-PAGE, and Coomassie blue staining. The running buffer used in all BIAcore experiments consisted of HBS buffer supplemented with 0.05% surfactant P20. Equilibrium constant determination (koff and kon) was performed using BIAevaluation 2.0 software. The equilibrium dissociation constants KD were calculated from the koff/kon ratio.
(§2) Results are illustrated by FIG. 16 showing the BIAcore analysis of NKG2A ITIM interaction with the SH2 domains of SHP-1, SHP-2 and SHIP phosphatases. In FIG. 16, the binding of 100 nM soluble recombinant GST-SHP-1.SH2(N+C), GST-SHP-2.SH2(N+C) or GST-SHIP.SH2 to immobilized NKG2A/B phosphorylated ITIM peptides (25 RU) was monitored by real-time analysis using surface plasmon resonance. Results are expressed as corrected resonance units (CRU) corresponding to the raw RU values after subtraction of background RU value due to the injection medium.
(§3) The measurement of phosphorylated peptide binding to GST-SHP-1.SH2(N+C) and GST-SHP-2.SH2(N+C) fusion proteins was performed at a constant 5 μl/min flow rate. In this representative experiment, 25 RU of phosphorylated NKG2A N-term and NKG2A C-term peptides were immobilized on streptavidin microchips. The regeneration was performed using HBS buffer supplemented with 0.03% SDS. Results are expressed as corrected resonance units (CRU) corresponding to the raw RU values after subtraction of background RU value due to the injection medium, koff and kon were calculated from three independent measurements using the BIAevaluation 2.0 software. In addition, kon was calculated as the slope of the curve kg=kon×c−koff, where koff is the off-rate constant and c is the concentration of the soluble recombinant GST fusion proteins. By plotting kg as a function of c, a linear regression fit was obtained (r^2>0.98) for the binding of NKG2A ITIM N- and C-term to SHP-1 and SHP-2 tandem SH2 domains. This linear representation allows to check on the validity of the single step interaction and to confirm the determination of the kon constant using non-linear analysis (BIAevaluation software).

GST-SHP-2.SH2(N + C) = molecular target: T2, GST-SHP-2.SH2(N + C); test: Surface plasmon resonance (BIAcore), SHP-2 tandem SH2 domains; format: binding, murine; details: for koff / kon: 25 RU phosphorylated peptide immobilized, 5 μl/min
Procedure: as §1, §2, §3

[3] = molecular target: human p58.2 KIR (CD158b), HLA-Cw3-specific killer-cell inhibitory receptor (human) (UniProt P43628); test: cell-based or functional assay
human p58.2 KIR (CD158b), HLA-Cw3-specific killer-cell inhibitory receptor (human), sequence (P43628 22-341): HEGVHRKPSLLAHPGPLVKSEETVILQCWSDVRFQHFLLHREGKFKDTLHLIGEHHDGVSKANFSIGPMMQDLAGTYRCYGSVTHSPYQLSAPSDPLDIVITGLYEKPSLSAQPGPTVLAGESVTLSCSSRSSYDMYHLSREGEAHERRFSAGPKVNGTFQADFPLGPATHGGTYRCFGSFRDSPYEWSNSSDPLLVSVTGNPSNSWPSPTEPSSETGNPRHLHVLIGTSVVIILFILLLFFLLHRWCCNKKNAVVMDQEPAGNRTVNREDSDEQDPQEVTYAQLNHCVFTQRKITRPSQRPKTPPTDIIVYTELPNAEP

[4] = molecular target: T3, SHIP polyinositol phosphatase from …; test: cell lysate adsorption to peptide beads, immunoblot (RBL-2H3), FIG. 15A
Procedure: In an attempt to characterize the function of these putative ITIMs, cell lysates were incubated with phosphorylated and nonphosphorylated synthetic peptides corresponding to the N-terminal and the C-terminal I/VxYxxL stretches present in NKG2A intracytoplasmic domain. Cell lysates absorbed to peptides were then assayed by immunoblotting for the presence of the phosphatases known to interact with phosphorylated ITIMs, i.e. the protein tyrosine phosphatases SHP-1 and SHP-2, as well as the polyinositol phosphate phosphatase, SHIP. In parallel, lysates adsorption were performed using control peptides corresponding to ITIMs present in Ig-like ITIM bearing receptors such as human KIRs (p58.2/CD158b, a receptor for HLA-Cw3) and mouse FcγRIIB, as well as in mouse lectin-like ITIM-bearing receptor, such as Ly-49A.
As shown in FIG. 15A (lanes 1 and 2), both N- and C-terminal I/VxYxxL stretches present in NKG2A associate with SHP-1 and SHP-2 in vitro, but no binding to SHIP was detected. Similar patterns of association were obtained using the phosphorylated ITIM peptides of […] and p58.2 KIR (FIG. 15A, lanes 3 to 5). In contrast, FcγRIIB phosphorylated ITIM peptides also associate with SHIP (FIG. 15A, lane 6). No association of phosphatases with nonphosphorylated peptides corresponding to FcγRIIB (FIG. 15A, lane 7) and NKG2A N- and C-terminal I/VxYxxL stretches was detected. When nonphosphorylated and phosphorylated peptides were used to adsorb lysates prepared from ³⁵S methionine/cysteine-labeled cells, only two bands around 64 and 68 kDa selectively associate with both phosphorylated NKG2A N- and C-terminal I/VxYxxL stretches, as compared to nonphosphorylated ones (FIG. 15B). The 64 and 68 kDa proteins which bind to phosphorylated NKG2A peptides correspond to SHP-1 and SHP-2 apparent molecular weight respectively, supporting the immunoblotting results. Therefore, our results define the two NKG2A I/VxYxxL stretches as ITIMs which appear to function similarly to other ITIMs present in inhibitory receptors for MHC class I molecules, i.e. KIRs and Ly-49 molecules. Using recombinant soluble tandem SH2 domains of SHP-1 and SHP-2, we confirmed by surface plasmon resonance that both NKG2A ITIM phosphopeptides directly associate with the SH2 domains of SHP-1 and SHP-2, but not with the SH2 domain of SHIP (FIG. 16).

[5] = calculated from the koff/kon ratio

Molecule | Kd [1] [nM] | koff [1] [s⁻¹] | kon [1] [M⁻¹ s⁻¹] | Kd [2] [nM] | koff [2] [s⁻¹] | kon [2] [M⁻¹ s⁻¹] | koff (GST-SHP-1.SH2(N + C)) [s⁻¹] | kon (GST-SHP-1.SH2(N + C)) [M⁻¹ s⁻¹] | koff (GST-SHP-2.SH2(N + C)) [s⁻¹] | kon (GST-SHP-2.SH2(N + C)) [M⁻¹ s⁻¹] | further results
CC[C@H](C)[C@H](NC(=O)[C@@H](NC(=O)CNC(=O)[C@H](CCC(N)=O)NC(=O)[C@H](CC(N)=O)NC(=O)[C@H](CC(=O)O)NC(=O)[C@H](CCSC)NC(=O)CCCC[C@@H]1SC[C@@H]2NC(=O)N[C@@H]21)C(C)C)C(=O)N[C@@H](Cc1ccc(OP(=O)(O)O)cc1)C(=O)N[C@@H](CO)C(=O)N[C@@H](CC(=O)O)C(=O)N[C@@H](CC(C)C)C(=O)N[C@@H](CC(N)=O)C(=O)N[C@@H](CC(C)C)C(=O)O [NKG2-A N-terminal ITIM, MDNQGVIY8 SDLNL] (HELM PEPTIDE1{[O=C1N[C@H]2[C@H](CS[C@H]2CCCCC(=O)[*:2])N1].M.D.N.Q.G.V.I.[O=C([C@H](Cc1ccc(OP(=O)(O)O)cc1)N[*:1])[*:2]].S.D.L.N.L}$$$$V2.0) | – | – | – | – | – | – | 0.00189 | 390000 | 0.00142 | 1.03e+06 | Kd (GST-SHP-1.SH2(N + C); [5]): 4.8 nM; Kd (GST-SHP-2.SH2(N + C); [5]): 1.38 nM
GL183 F(ab')2 | – | – | – | – | – | – | – | – | – | – | inhibition of CD25/CD3 zeta-induced serotonin release, RTIIBp58 B clone (GL183 1 µg/ml, anti-hCD25 3 µg/ml) [3]: 39.3%; inhibition of CD25/CD3 zeta-induced serotonin release, clone with unusually high CD25/CD3 zeta (GL183 F(ab')2 1 µg/ml) [3]: 14.1%; inhibition of FcεRI-induced serotonin release, first RTIIBp58 clone (GL183 1 µg/ml, IgE 10^-3 dilution, GAM) [3]: 72.8%; inhibition of FcεRI-induced serotonin release, second RTIIBp58 clone (GL183 1 µg/ml, IgE 10^-3 dilution, GAM) [3]: 55.8%
CC[C@H](C)[C@H](NC(=O)CCCC[C@@H]1SC[C@@H]2NC(=O)N[C@@H]21)C(=O)N[C@@H](CC(C)C)C(=O)N[C@@H](C)C(=O)N[C@H](C(=O)N[C@@H](CCC(=O)O)C(=O)N[C@@H](CCC(N)=O)C(=O)N[C@@H](CCC(=O)O)C(=O)N[C@H](C(=O)N[C@H](C(=O)N[C@@H](Cc1ccc(OP(=O)(O)O)cc1)C(=O)N[C@@H](C)C(=O)N[C@@H](CCC(=O)O)C(=O)N[C@@H](CC(C)C)C(=O)N[C@@H](CC(N)=O)C(=O)N[C@@H](CC(C)C)C(=O)O)[C@@H](C)O)[C@@H](C)CC)[C@@H](C)O [NKG2-A C-terminal ITIM, ILATEQEIT40 AELNL] (HELM PEPTIDE1{[O=C1N[C@H]2[C@H](CS[C@H]2CCCCC(=O)[*:2])N1].I.L.A.T.E.Q.E.I.T.[O=C([C@H](Cc1ccc(OP(=O)(O)O)cc1)N[*:1])[*:2]].A.E.L.N.L}$$$$V2.0; N-terminus and C-terminus assumed) | – | – | – | – | – | – | 0.00117 | 410000 | 0.00132 | 840000 | –
Biotin-MSEQEVT[pY]SMVRF (also called Ly-19A) [phosphorylated Ly-49A ITIM peptide] | – | – | – | – | – | – | – | – | – | – | binding result [4]: no binding

Further lines, with some results ahead:

Kd [1] [nM] | koff [1] [s⁻¹] | kon [1] [M⁻¹ s⁻¹] | Kd [2] [nM] | koff [2] [s⁻¹] | kon [2] [M⁻¹ s⁻¹] | Molecule | koff (GST-SHP-1.SH2(N + C)) [s⁻¹] | kon (GST-SHP-1.SH2(N + C)) [M⁻¹ s⁻¹] | koff (GST-SHP-2.SH2(N + C)) [s⁻¹] | kon (GST-SHP-2.SH2(N + C)) [M⁻¹ s⁻¹] | further results
423 | 0.042 | 100000 | 3160 | 0.025 | 8000 | GST-SHP-1.SH2(N) fusion protein (from UniProt P29351 1-106) | – | – | – | – | –
137 | 0.0007 | 5000 | 545 | 0.0003 | 600 | GST-SHP-1.SH2(C) fusion protein (from UniProt P29351 107-217) | – | – | – | – | –

Reference: patent publication US20040038894A1, “Compounds for modulating cell negative regulations and biological applications thereof” (INSTITUT NATIONAL DE LA SANTE ET DE LA RECHERCHE MEDICALE …, priority 1996, published 2004)
